Patent US20070167369A1, “Novel use of isolated polypeptide comprising four FAS-1 domains, EM1 domain and RGD motif” (KYUNGPOOK NATIONAL UNIVERSITY INDUSTRY-ACADEMIC COOPERATION …, priority 2004, published 2007)

B1: Regenin: size control of truncated βig-h3: protein that expresses four copies of the fourth fas-1 domain (protein)
chain: MGTVMDVLKGDNRFSMLVAAIQSAGLTETLNREGVYTVFAPTNEAFRALPPRERSRLLGDAKELANILKYHIGDEILVSGGIGALVRLKSLQGDKLEVSLKNNVVSVNKEPVAEPDIMATNGVVHVITNVLMGTVMDVLKGDNRFSMLVAAIQSAGLTETLNREGVYTVFAPTNEAFRALPPRERSRLLGDAKELANILKYHIGDEILVSGGIGALVRLKSLQGDKLEVSLKNNVVSVNKEPVAEPDIMATNGVVHVITNVLMGTVMDVLKGDNRFSMLVAAIQSAGLTETLNREGVYTVFAPTNEAFRALPPRERSRLLGDAKELANILKYHIGDEILVSGGIGALVRLKSLQGDKLEVSLKNNVVSVNKEPVAEPDIMATNGVVHVITNVLMGTVMDVLKGDNRFSMLVAAIQSAGLTETLNREGVYTVFAPTNEAFRALPPRERSRLLGDAKELANILKYHIGDEILVSGGIGALVRLKSLQGDKLEVSLKNNVVSVNKEPVAEPDIMATNGVVHVITNVL
B2: βig-h3 D-II: recombinant protein containing the second fas-1 domain of human βig-h3 (SEQ ID NO: 62) (protein, listed as Homo sapiens)
chain: NIQQIIEIEDTFETLRAAVAASGLNTMLEGNGQYTLLAPTNEAFEKIPSETLNRILGDPEALRDLLNNHILKSAMCAEAIVAGLSVETLEGTTLEVGCSGDMLTINGKAIISNKDILATNGVIHYIDELLI

What was measured:
Format in all cases: cell-based, human
HUVECs [1] = assay: Endothelial tube formation in Matrigel (Example 14)
Description: Matrigel (Chemicon, International Inc, Temecula, Calif.) was added (100 μl) into each well of a 96-well plate and polymerized for 30 minutes at 37° C. HUVECs were suspended in medium at a density of 3×10^5 cells/ml, and 0.1 ml of the cell suspension was pre-incubated with or without the indicated concentration of the truncated βig-h3, the fas-1 domain and Regenin for 40 min at 37° C., then seeded on the surface of the Matrigel. Cells were incubated for 6 to 10 hours at 37° C. The cells were then photographed, and branch points from 4 high-power fields (x200) were counted and averaged.

HUVECs [2] = assay: Migration of endothelial cells to vitronectin, transwell (Example 13-2)
Description: Cell migration assays were done in transwell plates (8 μm pore size, Costar, Cambridge, Mass.). The undersurface of the membrane was coated with 5 μg/ml of vitronectin at 4° C. and blocked for 1 hour at room temperature with PBS containing 2% BSA. HUVECs were suspended in medium at a density of 3×10^5 cells/ml, and 0.1 ml of the cell suspension was pre-incubated with or without the indicated concentration of the truncated βig-h3, the fas-1 domain and Regenin for 40 min at 37° C., then added to the upper compartment of the filter. Cells were allowed to migrate for 4 to 6 hours at 37° C. The filters were fixed with 8% glutaraldehyde and stained with crystal violet, and non-migrating cells on the upper surface of the filter were removed by wiping with a cotton swab. The extent of cell migration was determined by light microscopy, and within each well, counting was done in nine randomly selected microscopic high power fields (x200).

HUVEC = assay: Adhesion of endothelial cells to vitronectin (Example 13-1)
Description: Flat-bottomed 96-well ELISA plates (Costar, Corning, Inc., NY) were incubated overnight at 4° C. with 5 μg/ml of vitronectin (Promega, Madison, Wis.) and blocked for 1 hour at room temperature with PBS containing 2% bovine serum albumin (BSA).
Primary human umbilical vein endothelial cells (HUVEC) were cultured at 37° C. in 5% CO2 in M199 medium supplemented with 20% fetal bovine serum. For all the experiments, HUVECs were used at passage 4 or less. HUVEC cells were suspended in medium at a density of 3×10^5 cells/ml, and 0.1 ml of the cell suspension was pre-incubated with or without the indicated concentration of the truncated βig-h3, the fas-1 domain and Regenin for 40 min at 37° C., then added to each well of the coated. After incubation for 5 to 10 minutes at 37° C., unattached cells were removed by rinsing with PBS. Attached cells were then incubated for 1 hour at 37° C. in 50 mM citrated buffer (pH 5.0) containing 3.75 mM p-nitrophenyl-N-acetyl-Dglycosamide and 0.25% Triton X-100. Enzyme activity was blocked by adding 50 mM glycine buffer (pH 10.4) containing 5 mM EDTA, and the absorbance was measured at 405 nm in a Bio-Rad model 550 microplate reader.

HUVECs [3] = assay: Endothelial tube formation assay on Matrigel (Examples 9-1 and 11); settings: Example 11; controls BSA or Nus protein
Description: First, 100 μl of Matrigel (Chemicon, International Inc, Temecula, Calif.) was added to each well of a 96-well plate and allowed to polymerize. HUVECs were suspended in medium at a density of 3×10^5 cells/ml, and 0.1 ml of the cell suspension was added to each well of the plate coated with Matrigel. At this time, 5 μM or 10 μM of the fas-1 domain (βig-h3 D-IV) prepared in Example 1 above was added together. A control was either treated with BSA or had no treatment. Thereafter, the cells were incubated at 37° C. for 16-18 hours. The cells were photographed, and endothelial tubes were counted and averaged.
For this purpose, the second fas-1 domain of βig-h3 (βig-h3 D-II) was prepared in the same manner as in Example 1-1 above. Since each domain of stabilin-II is insoluble, it was prepared in the form of soluble protein by cloning into the BamHI/XhoI sites of a Nus-conjugated pET43.1 vector (Novagen, USA). The prepared recombinant proteins were named “Nus-fas3” and “Nus-fas7”, respectively. A control to the second fas-1 domain of βig-h3 was treated with BSA, and a control to the fas-1 domain of stabilin-II was treated with a Nus protein. Thereafter, an endothelial tube formation assay was performed in the same manner as in Example 9-1.

Row | Molecule | 70%-inhibition of tube formation observed at (HUVECs [1]; concentration giving 70% inhibition) [µM] | inhibition of tube formation (HUVECs [1]; various concentrations, 6 to 10 hours) | IC50 (HUVECs [2]; read-out: half-inhibition of migration toward vitronectin observed at) [µM] | inhibition of migration to vitronectin (HUVECs [2]; various concentrations, 4 to 6 hours) | inhibition of adhesion to vitronectin (HUVEC; 500 nM) | inhibition of adhesion to vitronectin (HUVEC; various concentrations, vitronectin 5 μg/ml) | inhibition of endothelial tube formation by various fas-1 domains (HUVECs [3])
1 | B1 | 5 | dose-dependent inhibition | 5 | dose-dependent inhibition | ineffective | dose-dependent inhibition | –
2 | B2 | – | – | – | – | – | – | completely inhibited
